# Measured values taken from PMC7417313 (2020).
# B1: Factor H (protein)
# chain: EDCNELPPRRNTEILTGSWSDQTYPEGTQAIYKCRPGYRSLGNVIMVCRKGEWVALNPLRKCQKRPCGHPGDTPFGTFTLTGGNVFEYGVKAVYTCNEGYQLLGEINYRECDTDGWTNDIPICEVVKCLPVTAPENGKIVSSAMEPDREYHFGQAVRFVCNSGYKIEGDEEMHCSDDGFWSKEKPKCVEISCKSPDVINGSPISQKIIYKENERFQYKCNMGYEYSERGDAVCTESGWRPLPSCEEKSCDNPYIPNGDYSPLRIKHRTGDEITYQCRNGFYPATRGNTAKCTSTGWIPAPRCTLKPCDYPDIKHGGLYHENMRRPYFPVAVGKYYSYYCDEHFETPSGSYWDHIHCTQDGWSPAVPCLRKCYFPYLENGYNQNYGRKFVQGKSIDVACHPGYALPKAQTTVTCMENGWSPTPRCIRVKTCSKSSIDIENGFISESQYTYALKEKAKYQCKLGYVTADGETSGSITCGKDGWSAQPTCIKSCDIPVFMNARTKNDFTWFKLNDTLDYECHDGYESNTGSTTGSIVCGYNGWSDLPICYERECELPKIDVHLVPDRKKDQYKVGEVLKFSCKPGFTIVGPNSVQCYHFGLSPDLPICKEQVQSCGPPPELLNGNVKEKTKEEYGHSEVVEYYCNPRFLMKGPNKIQCVDGEWTTLPVCIVEESTCGDIPELEHGWAQLSSPPYYYGDSVEFNCSESFTMIGHRSITCIHGVWTQLPQCVAIDKLKKCKSSNLIILEEHLKNKKEFDHNSNIRYRCRGKEGWIHTVCINGRWDPEVNCSMAQIQLCPPPPQIPNSHNMTTTLNYRDGEKVSVLCQENYLIQEGEEITCKDGRWQSIPLCVEKIPCSQPPQIEHGTINSSRSSQESYAHGTKLSYTCEGGFRISEENETTCYMGKWSSPPQCEGLPCKSPPEISHGVVAHMSDSYQYGEEVTYKCFEGFGIDGPAIAKCLGEKWSHPPSCIKTDCLSLPSFENAIPMGEKKDVYKAGEQVTYTCATYYKMDGASNVTCINSRWTGRPTCRDTSCVNPPTVQNAYIVSRQMSKYPSGERVRYQCRSPYEMFGDEEVMCLNGNWTEPPQCKDSTGKCGPPPPIDNGDITSFPLSVYAPASSVEYQCQNLYQLEGNKRITCRNGQWSEPPKCLHPCVISREIMENYNIALRWTAKQKLYSRTGESVEFVCKRGYRLSSRSHTLRTTCWDGKLEYPTCAKR
# Molecular target: C3b C3b (Homo sapiens, UniProt P01024)
# Sequence (P01024 566-670): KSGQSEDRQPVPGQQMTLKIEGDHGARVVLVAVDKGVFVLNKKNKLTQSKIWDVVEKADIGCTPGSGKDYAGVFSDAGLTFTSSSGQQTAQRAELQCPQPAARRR
# Assay: SPR
binder,measurement,value
B1,Kd,100 nM
